Assays:
[1] = system: Fer (mouse); assay: phosphorylation enrichment, bacterial display (enrichment ratio); higher = better substrate or ligand; peptides without Tyr show the background
[2] = biological target: FGFR1 (UniProt P11362); assay: as above
[3] = system: AncSZ; assay: as above
[4] = biological target: Fyn (UniProt P06241); assay: as above
[5] = biological target: Jak2 (UniProt O60674); assay: as above
[6] = system: c-Abl (mouse); assay: as above
[7] = biological target: EPHB1 (UniProt P54762); assay: as above
[8] = biological target: MERTK (UniProt Q12866); assay: as above
[9] = biological target: Hck (UniProt P08631); assay: as above
[10] = biological target: EPHB2 (UniProt P29323); assay: as above
[11] = biological target: FGFR3 (UniProt P22607); assay: as above
[12] = biological target: Fes (UniProt P07332); assay: as above
[13] = system: c-Src; assay: as above
[14] = biological target: c-Src SH2; assay: SH2 binding enrichment of the phosphorylated peptide, bacterial display (enrichment ratio); higher = better substrate or ligand; peptides without Tyr show the background
[15] = biological target: Grb2 SH2 (UniProt P62993); assay: as above
[16] = biological target: SHP2-C SH2; assay: as above
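Wherever SH2 binding enrichment of the phosphorylated peptide, bacterial display is given: peptide library displayed on the E. coli surface as eCPX fusions, selected cells deep-sequenced, score is each peptide's frequency after selection divided by its frequency in the input.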
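Wherever phosphorylation enrichment, bacterial display is given: 11-residue human phosphosite peptides and single-mutation variants displayed on the E. coli surface, counted by deep sequencing, each peptide's frequency after selection divided by its frequency in the unselected input library; frequency after pTyr selection over input frequency; kinase dosed for 20-30% of maximal phosphorylation in three min.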

Sequence of EPHB1 (P54762 whole entry, looked up): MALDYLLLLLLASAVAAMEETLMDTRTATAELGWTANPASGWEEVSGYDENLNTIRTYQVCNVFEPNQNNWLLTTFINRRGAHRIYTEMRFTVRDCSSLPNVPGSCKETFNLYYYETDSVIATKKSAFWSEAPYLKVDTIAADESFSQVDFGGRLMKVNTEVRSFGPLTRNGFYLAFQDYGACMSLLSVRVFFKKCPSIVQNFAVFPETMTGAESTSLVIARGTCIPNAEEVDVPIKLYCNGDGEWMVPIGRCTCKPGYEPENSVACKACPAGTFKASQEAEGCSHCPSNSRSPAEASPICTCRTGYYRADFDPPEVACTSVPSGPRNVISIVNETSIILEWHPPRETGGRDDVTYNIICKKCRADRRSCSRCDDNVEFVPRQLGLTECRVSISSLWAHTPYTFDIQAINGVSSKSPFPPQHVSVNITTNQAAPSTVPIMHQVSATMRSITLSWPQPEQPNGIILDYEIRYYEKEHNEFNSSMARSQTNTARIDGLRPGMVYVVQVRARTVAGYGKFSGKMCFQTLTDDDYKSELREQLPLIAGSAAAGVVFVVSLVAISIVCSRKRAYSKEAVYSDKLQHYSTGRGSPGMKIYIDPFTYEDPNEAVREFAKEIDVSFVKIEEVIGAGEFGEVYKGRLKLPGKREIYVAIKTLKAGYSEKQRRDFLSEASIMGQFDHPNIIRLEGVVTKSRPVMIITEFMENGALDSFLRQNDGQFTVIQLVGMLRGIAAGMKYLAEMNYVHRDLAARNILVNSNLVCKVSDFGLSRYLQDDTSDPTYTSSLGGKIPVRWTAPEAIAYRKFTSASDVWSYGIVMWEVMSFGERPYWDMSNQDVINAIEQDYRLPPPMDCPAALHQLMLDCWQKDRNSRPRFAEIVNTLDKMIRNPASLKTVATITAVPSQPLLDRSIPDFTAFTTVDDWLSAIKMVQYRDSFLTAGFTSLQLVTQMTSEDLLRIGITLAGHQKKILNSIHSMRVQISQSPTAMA
Sequence of Grb2 SH2 (P62993 whole entry, looked up): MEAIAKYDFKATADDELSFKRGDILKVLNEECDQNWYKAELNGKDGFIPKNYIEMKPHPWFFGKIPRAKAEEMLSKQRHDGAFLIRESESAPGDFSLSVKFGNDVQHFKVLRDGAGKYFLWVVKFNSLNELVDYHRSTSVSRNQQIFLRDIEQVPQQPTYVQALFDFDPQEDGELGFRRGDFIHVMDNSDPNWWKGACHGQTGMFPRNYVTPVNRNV
Sequence of Jak2 (O60674 whole entry, looked up): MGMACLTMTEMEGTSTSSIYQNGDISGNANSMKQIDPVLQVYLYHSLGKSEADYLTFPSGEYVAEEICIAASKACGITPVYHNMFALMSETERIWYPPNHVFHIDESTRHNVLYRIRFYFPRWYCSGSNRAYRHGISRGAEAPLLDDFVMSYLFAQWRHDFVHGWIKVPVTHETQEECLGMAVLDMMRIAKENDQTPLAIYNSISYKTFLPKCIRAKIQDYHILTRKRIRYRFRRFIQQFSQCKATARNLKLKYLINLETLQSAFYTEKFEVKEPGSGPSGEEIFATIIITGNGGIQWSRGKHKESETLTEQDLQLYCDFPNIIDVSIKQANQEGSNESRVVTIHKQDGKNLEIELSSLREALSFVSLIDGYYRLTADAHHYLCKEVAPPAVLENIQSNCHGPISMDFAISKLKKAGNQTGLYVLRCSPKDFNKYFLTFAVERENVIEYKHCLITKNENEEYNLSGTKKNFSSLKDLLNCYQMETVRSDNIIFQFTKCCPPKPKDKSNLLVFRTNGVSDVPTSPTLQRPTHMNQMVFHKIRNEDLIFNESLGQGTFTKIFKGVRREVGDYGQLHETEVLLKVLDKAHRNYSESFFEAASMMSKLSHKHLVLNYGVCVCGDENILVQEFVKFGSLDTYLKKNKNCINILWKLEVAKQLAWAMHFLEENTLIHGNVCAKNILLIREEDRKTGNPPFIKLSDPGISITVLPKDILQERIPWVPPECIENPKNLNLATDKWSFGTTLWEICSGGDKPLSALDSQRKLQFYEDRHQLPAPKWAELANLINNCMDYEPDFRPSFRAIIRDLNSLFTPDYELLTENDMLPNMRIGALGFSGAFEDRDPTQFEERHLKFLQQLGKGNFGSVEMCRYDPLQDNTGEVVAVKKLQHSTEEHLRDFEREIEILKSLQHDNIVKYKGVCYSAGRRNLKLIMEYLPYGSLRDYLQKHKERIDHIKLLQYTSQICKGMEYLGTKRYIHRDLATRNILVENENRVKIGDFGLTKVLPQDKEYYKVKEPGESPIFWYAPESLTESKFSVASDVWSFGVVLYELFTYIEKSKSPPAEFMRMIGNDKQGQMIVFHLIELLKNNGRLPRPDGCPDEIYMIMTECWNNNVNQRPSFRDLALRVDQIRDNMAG
Sequence of Hck (P08631 whole entry, looked up): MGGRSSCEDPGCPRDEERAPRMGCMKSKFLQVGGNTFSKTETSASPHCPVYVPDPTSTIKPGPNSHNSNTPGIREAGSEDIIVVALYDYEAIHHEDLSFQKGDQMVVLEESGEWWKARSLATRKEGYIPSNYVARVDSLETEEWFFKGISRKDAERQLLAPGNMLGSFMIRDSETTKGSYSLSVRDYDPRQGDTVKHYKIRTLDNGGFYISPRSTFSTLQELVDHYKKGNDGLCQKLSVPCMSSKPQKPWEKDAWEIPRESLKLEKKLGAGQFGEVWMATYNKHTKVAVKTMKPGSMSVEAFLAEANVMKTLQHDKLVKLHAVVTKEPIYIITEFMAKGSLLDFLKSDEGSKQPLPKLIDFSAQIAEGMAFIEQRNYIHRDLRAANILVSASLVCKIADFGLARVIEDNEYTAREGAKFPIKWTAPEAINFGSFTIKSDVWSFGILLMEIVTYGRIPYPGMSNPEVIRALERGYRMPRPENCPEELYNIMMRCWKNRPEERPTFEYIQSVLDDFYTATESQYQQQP
Sequence of Fyn (P06241 whole entry, looked up): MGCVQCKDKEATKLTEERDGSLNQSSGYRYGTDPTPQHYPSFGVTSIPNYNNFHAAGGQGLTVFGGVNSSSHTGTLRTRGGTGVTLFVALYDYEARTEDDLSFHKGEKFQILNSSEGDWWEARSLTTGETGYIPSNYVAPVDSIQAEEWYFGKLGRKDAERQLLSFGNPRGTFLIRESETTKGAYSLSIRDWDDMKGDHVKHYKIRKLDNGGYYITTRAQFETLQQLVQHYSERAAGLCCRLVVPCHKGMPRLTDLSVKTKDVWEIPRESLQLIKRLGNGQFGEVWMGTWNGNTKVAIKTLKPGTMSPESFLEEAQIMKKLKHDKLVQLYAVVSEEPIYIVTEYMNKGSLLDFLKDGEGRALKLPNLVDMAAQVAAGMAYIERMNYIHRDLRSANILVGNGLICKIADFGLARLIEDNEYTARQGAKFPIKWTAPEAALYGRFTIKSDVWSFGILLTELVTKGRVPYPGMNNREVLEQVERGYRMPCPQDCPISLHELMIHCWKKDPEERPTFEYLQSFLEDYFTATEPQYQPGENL
Sequence of Fes (P07332 whole entry, looked up): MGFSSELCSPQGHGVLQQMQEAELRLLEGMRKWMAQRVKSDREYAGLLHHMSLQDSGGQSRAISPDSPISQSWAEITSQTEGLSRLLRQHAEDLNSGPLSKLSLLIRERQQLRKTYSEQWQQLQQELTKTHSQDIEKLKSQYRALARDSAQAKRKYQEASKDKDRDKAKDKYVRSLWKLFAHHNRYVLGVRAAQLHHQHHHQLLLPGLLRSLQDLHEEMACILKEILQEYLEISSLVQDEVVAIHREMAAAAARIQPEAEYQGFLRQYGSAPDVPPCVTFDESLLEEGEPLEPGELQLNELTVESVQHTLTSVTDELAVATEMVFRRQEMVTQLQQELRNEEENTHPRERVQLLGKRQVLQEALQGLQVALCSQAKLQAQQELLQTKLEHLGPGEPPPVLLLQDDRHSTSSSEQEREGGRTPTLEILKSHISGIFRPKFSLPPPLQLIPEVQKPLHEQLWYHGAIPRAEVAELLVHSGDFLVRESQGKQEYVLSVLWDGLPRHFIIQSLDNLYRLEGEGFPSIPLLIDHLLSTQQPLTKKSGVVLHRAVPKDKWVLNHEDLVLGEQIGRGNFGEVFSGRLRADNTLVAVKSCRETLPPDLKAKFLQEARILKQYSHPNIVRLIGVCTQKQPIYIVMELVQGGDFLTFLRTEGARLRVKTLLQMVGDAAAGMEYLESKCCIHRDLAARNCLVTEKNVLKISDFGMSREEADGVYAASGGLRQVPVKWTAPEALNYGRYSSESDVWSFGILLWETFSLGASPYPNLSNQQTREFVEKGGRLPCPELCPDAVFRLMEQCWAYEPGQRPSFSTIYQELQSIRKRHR
Sequence of FGFR1 (P11362 whole entry, looked up): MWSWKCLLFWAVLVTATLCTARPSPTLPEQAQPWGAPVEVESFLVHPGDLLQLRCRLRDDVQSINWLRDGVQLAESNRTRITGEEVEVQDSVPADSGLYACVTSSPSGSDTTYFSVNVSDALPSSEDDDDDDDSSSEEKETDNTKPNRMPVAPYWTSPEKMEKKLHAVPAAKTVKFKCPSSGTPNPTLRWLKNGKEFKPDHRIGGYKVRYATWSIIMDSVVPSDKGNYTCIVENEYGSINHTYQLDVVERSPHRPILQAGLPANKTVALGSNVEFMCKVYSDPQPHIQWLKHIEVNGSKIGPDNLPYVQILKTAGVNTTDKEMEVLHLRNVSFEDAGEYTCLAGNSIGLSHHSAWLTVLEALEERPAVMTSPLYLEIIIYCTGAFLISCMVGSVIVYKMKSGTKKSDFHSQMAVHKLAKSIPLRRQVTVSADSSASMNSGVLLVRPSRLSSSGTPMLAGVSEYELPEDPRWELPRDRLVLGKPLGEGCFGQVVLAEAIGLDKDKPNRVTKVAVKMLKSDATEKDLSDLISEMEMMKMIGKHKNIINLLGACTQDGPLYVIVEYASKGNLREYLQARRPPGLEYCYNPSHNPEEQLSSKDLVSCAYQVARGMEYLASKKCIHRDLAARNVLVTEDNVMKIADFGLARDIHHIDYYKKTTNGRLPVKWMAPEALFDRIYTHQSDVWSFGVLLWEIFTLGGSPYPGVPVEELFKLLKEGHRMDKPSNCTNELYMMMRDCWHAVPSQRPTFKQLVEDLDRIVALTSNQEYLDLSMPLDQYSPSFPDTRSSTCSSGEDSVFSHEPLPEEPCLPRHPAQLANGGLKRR

Sequence	phosphorylation enrichment [1]	phosphorylation enrichment [2]	phosphorylation enrichment [3]	phosphorylation enrichment [4]	phosphorylation enrichment [5]	phosphorylation enrichment [6]	phosphorylation enrichment [7]	phosphorylation enrichment [8]	phosphorylation enrichment [9]	phosphorylation enrichment [10]	phosphorylation enrichment [11]	phosphorylation enrichment [12]	phosphorylation enrichment [13]	SH2 binding enrichment [14]	SH2 binding enrichment [15]	SH2 binding enrichment [16]
RRAKGYPINLY [ITGB2_Y125_D128N]	0.656	0.814	0.762	0.963	0.693	0.535	0.707	0.623	0.912	0.853	0.605	0.932	0.7	0.484	0.764	0.55
RRESPYGGGGG [FUS_Y526_R524S]	0.436	0.402	0.636	0.451	0.74	0.569	0.46	0.501	0.596	0.546	0.414	0.611	0.519	0.566	0.907	0.362
RRIHSHRGHLW [VHL_Y112_Y112H]	0.689	0.558	0.918	0.604	0.659	0.909	0.773	0.621	0.737	0.732	0.701	1.01	0.828	0.378	0.906	0.262
RRIHSYRCHLW [VHL_Y112_G114C]	0.68	0.642	0.967	0.767	0.762	0.822	0.564	0.786	0.629	0.477	0.641	1.25	0.748	0.651	0.707	0.61
RRNNSYTCFTA [SLC20A2_Y386_YF]	0.734	0.886	2.81	1.19	1.95	1.86	0.96	1.3	0.771	1.65	1.33	1.68	1.69	0.695	0.7	0.509
RSAGKYDVYFI [MECP2_Y120_L124F]	0.464	0.535	1.09	5.26	0.925	0.923	0.691	1.02	4.46	0.467	0.484	1.34	3.15	0.639	0.923	0.804
RSDSSYRMSAT [NHS_Y1532]	0.541	0.717	0.764	0.747	0.598	0.679	0.592	0.68	0.775	0.673	0.754	0.757	0.585	0.476	0.844	0.809
RTVPLYESLRK [DDB1_Y718_P721L]	11.3	0.466	0.668	11.7	0.547	1.07	23	8.17	12.4	26.1	0.437	1.15	8.53	0.78	1.04	1.07
RVGNMYMRGLS [ABCG8_Y209_V210M]	0.469	0.704	0.672	0.657	0.663	0.453	0.615	0.697	0.615	0.559	0.596	0.966	0.552	1.01	1.42	1.7
SAEKAYHEQLS [TUBA1A_Y282]	0.425	0.604	0.558	0.428	0.619	0.511	0.462	0.418	0.443	0.424	0.572	0.844	0.369	0.506	0.951	0.785
SCRENYSFSEE [LEMD3_Y258_D260Y_YF]	0.53	0.452	1.1	0.501	0.988	0.791	0.709	0.38	0.509	0.725	0.75	1.08	0.588	0.807	1.05	0.716
SDPIIYTLENI [ADGRE1_Y534]	7.52	0.491	0.963	7.17	0.948	0.653	0.568	1.43	1.49	0.559	0.724	1.31	5.13	0.519	0.936	0.777
SEDSEYFRAFE [CASQ2_Y178_K180R_YF]	0.511	0.586	1.99	0.545	1.26	1.31	0.633	0.476	0.524	0.591	0.854	1.48	0.693	0.439	0.874	0.559
SEKVVYRRFTE [NCF1_Y41]	0.387	0.406	0.663	0.432	0.61	0.527	0.39	0.438	0.414	0.423	0.472	0.671	0.438	0.42	0.752	0.44
SFPSFYTSHVQ [NEFL_Y443_YF]	0.509	0.5	0.874	0.563	0.657	0.498	0.677	1.23	0.548	0.584	0.609	0.857	0.509	0.47	0.889	1.1
SGDINYGQFAQ [PLCG1_Y210_T209N]	0.423	0.289	0.727	0.554	0.631	0.874	0.478	0.387	0.65	0.63	0.548	0.683	0.647	0.526	1.07	0.596
SGKSEYLLPVA [MYLK_Y611_R607G]	0.45	0.456	1.08	0.453	0.721	1.17	0.486	0.397	0.362	0.424	0.554	0.89	0.453	0.383	0.801	0.465
SHISGYATLRR [RAPH1_Y1226]	0.399	0.392	0.941	0.392	0.628	0.43	0.374	0.438	0.4	0.391	0.562	0.753	0.382	0.567	0.697	1.65
SIKDKYVMALF [KCNH2_Y611_T613M_YF]	0.385	0.535	0.664	0.429	0.721	0.558	0.405	0.447	0.496	0.491	0.574	0.888	0.393	0.699	1.06	0.845
SIKDKYVTALY [KCNH2_Y611]	0.389	0.387	0.639	0.489	0.597	0.507	0.463	0.506	0.785	0.403	0.472	0.72	0.575	0.437	0.747	0.581
SIKDKYVTAVY [KCNH2_Y611_L615V]	0.431	0.498	0.565	0.545	0.585	0.441	0.446	0.443	0.552	0.423	0.638	0.705	0.49	0.48	0.808	0.664
SIKDKYVTVLF [KCNH2_Y611_A614V_YF]	0.392	0.482	0.763	0.442	0.743	0.549	0.481	0.375	0.546	0.48	0.646	0.91	0.361	0.669	1.04	10.8
SIRYNYLLDVL [FGFR4_Y237]	0.47	0.479	0.943	0.495	0.674	0.821	0.394	0.509	0.603	0.524	0.636	0.745	0.443	1.7	0.789	0.747
SKHHLYSDLQT [PTCHD1_Y84_R82H]	1.91	0.55	0.487	0.505	0.887	0.51	0.462	2.23	0.985	0.389	0.589	0.786	0.634	10	1.06	0.966
SKKSTYQALLD [GANC_Y43]	0.305	0.416	0.563	0.447	0.907	0.382	0.394	0.403	0.433	0.369	0.405	0.541	0.423	0.555	0.788	0.595
SKNFTYIWWLN [PSG4_Y271_YF]	0.508	0.498	1.18	0.416	1.26	0.78	0.675	0.391	0.435	0.611	0.884	1.36	0.402	0.409	0.646	0.513
SKNSKCNAEST [PSEN1_Y315_Y315C]	0.508	0.769	0.546	0.379	0.51	0.566	0.48	0.368	0.499	0.463	0.486	0.768	0.383	0.546	0.913	0.754
SLALFYRKVFH [RBL1_Y792_YF]	0.494	0.532	1.36	0.502	1.11	0.535	0.637	0.385	0.441	0.569	0.784	1.26	0.409	0.454	0.767	0.876
SLALFYRKVYH [RBL1_Y792]	0.566	0.575	1.23	0.481	1.14	0.593	0.667	0.408	0.518	0.643	0.776	1.23	0.379	0.522	0.689	0.795
